The numbers were not newly measured in publication PMC8471248, which cites them from elsewhere.

What is called Kd is the free concentration of one partner at which half of the binding sites on the other are occupied at equilibrium, for simple one-to-one binding.

For this data set, the target named is cell-surface GRP78 (Homo sapiens) (UniProt P11021).
Chain of UniProt P11021 (P11021 19-654): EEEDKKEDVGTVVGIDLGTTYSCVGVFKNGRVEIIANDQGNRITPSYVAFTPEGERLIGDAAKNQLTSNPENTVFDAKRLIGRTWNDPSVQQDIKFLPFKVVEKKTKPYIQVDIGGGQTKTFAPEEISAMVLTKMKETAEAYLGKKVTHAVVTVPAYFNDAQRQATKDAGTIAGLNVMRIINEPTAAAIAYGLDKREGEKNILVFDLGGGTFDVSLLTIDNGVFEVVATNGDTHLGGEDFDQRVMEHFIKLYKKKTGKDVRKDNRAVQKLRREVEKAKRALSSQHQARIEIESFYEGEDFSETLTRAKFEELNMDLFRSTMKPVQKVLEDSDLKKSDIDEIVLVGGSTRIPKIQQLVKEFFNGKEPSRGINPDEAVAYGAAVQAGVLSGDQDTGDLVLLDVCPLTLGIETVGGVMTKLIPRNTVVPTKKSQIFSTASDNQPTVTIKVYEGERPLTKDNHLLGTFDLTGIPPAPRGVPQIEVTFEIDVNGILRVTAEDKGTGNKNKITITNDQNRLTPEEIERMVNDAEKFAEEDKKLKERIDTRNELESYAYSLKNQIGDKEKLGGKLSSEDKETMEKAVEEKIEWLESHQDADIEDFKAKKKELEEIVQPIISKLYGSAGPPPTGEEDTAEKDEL

Turning to “Activated alpha 2-macroglobulin (from UniProt P01023)”, the Kd is 0.1 nM.
